Measured values from patent publication US9539338B2, “Polymer-based protein engineering methods to rationally tune enzyme activity, pH-dependence and stability” (Carnegie Mellon University, priority 2013, dated 2017).

Tests used:
[1] = In vitro gastric acid stability, 167 mM HCl, 37° C.; assay type: physicochemical; conditions: 167 mM HCl (pH 1), 3 hours
Procedure: Native CT and CT-conjugates were incubated at 4 μM in 167 mM HCl at 37° C. in 50 μL aliquots. Aliquots were removed at specified time points and residual activity was measured at 25° C. in 0.1 M sodium phosphate buffer (pH 8.0) with Suc-AAPF-pNA as substrate (288 μM). Each time point was measured in duplicate and residual activity was calculated as the ratio of activity remaining from time zero.

[2] = target: T1, Bowman-Birk trypsin-chymotrypsin inhibitor from glycine max (GM) (Glycine max, UniProt P01055); assay: Inhibitor binding study with Bowman-Birk inhibitor from glycine max; assay type: biochemical, glycine max (soybean); conditions: for Apparent Vmax / KM/Vmax: pH 8.0
T1 construct: purchased Sigma Aldrich; bovine pancreas for chymotrypsin
Procedure: FIGS. 24A and B show (A) Substrate/initial velocity plots and (B) secondary plots to determine inhibitor constant for native chymotrypsin with GM in 0.1 M sodium phosphate buffer (pH 8) at 25° C. […]
FIGS. 25A and B show (A) Substrate/initial velocity plots and (B) secondary plots to determine inhibitor constant for chyomtrypsin-pQA200 with GM in 0.1 M sodium phosphate buffer (pH 8) at 25° C. […]
(§1) Enzyme inhibition was assayed by measuring the hydrolytic activities of samples which contained a fixed concentration of protease and varying amounts of inhibitor, including a blank with no inhibitor. Inhibitors and peptide substrate were simultaneously added to the native and conjugate solutions immediately before measuring initial rates. The initial rate of hydrolysis of the peptide substrate was monitored by recording the increase in absorption at 412 nm. To determine dissociation constant of the enzyme-inhibitor complexes (Ki), Vmax app and KM app were determined by non-linear curve fitting (equation for Michaelis-Menten parameters) of plots of initial rate versus substrate concentration using the Enzfitter software. The dissociation constants were calculated from secondary plot of KM app/Vmax app versus initial inhibitor concentration.

[3] = Thermal stability at 37° C., pH 8.0; assay type: physicochemical; conditions: 8 hours incubation at 40 μM, 0.1 M sodium phosphate pH 8.0, 37° C.
Procedure: Native CT and CT-conjugates (40 μM) were dissolved in 0.1 M sodium phosphate buffer (pH 8.0) and incubated in a water bath in 50 μL aliquots at 37° C. At specified time points, aliquots were removed and diluted to 4 μM using 0.1 M sodium phosphate buffer (pH 8.0). Residual activity, measured in 0.1 M sodium phosphate buffer (pH 8.0) at 25° C., was calculated as the ratio of activity remaining relative to the activity at time zero. Substrate (Suc-AAPF-pNA) concentration was kept constant at 288 μM for each sample and time point. Native CT and conjugate activities were measured in duplicate at each time point.

[4] = Stability at 50 or 60° C. (chymotrypsin-pQA); assay type: physicochemical; conditions: 0.1 M sodium phosphate buffer pH 8.0
Procedure: […] Aliquots (50 μL) were removed and kept at 0° C. before measuring residual activity. The residual activity was calculated as a ratio of initial rates of hydrolysis reaction at given incubation time over the initial activity for each specific sample.

[5] = target: T2, aprotinin (AP) (Bos taurus, UniProt P00974); assay: Inhibitor binding study with aprotinin; assay type: biochemical, Bovine; conditions: 25° C.; for Apparent Vmax / KM/Vmax: pH 8.0
T2 construct: purchased Sigma Aldrich; host or cells: Nicotiana (tobacco) for aprotinin; bovine pancreas for chymotrypsin
Procedure: Apparent KM and Vmax values were calculated using EnzFitter by Michelis-Menten curve fitting of substrate against initial velocity plots. (B) Secondary plots with calculated apparent KM and Vmax values were used to determine inhibition constants of aprotinin towards native chymotrypsin.
FIGS. 23A and B show (A) Substrate/initial velocity plots and (B) secondary plots to determine inhibitor constant for chymotrypsin-pQA200 with aprotinin in 0.1 M sodium phosphate buffer (pH 8) at 25° C. The procedure used was the same as described above for aprotinin and native chymotrypsin.
as §1

[6] = target: T3, Suc-AAPF-pNA (Bos taurus, UniProt P00766); assay: Enzyme activity: hydrolysis of Suc-AAPF-pNA at pH 5-10 (native CT, chymotrypsin-pQA conjugates); assay type: biochemical; conditions: 0.1 M phosphate buffer
T3 construct: purchased Sigma Aldrich; host or cells: bovine pancreas
Procedure: N-Succinyl-Ala-Ala-Pro-Phe p-nitroanilide (0 to 50 μL of 9.60 mM in DMSO) was added to sodium phosphate buffer (990 to 940 μL of 100 mM, pH 5-10). Native CT or conjugates solution (10 μL of 4.0 μM) was added to the substrate solution. The initial rate of hydrolysis of the peptide substrate was monitored by recording the increase in absorption at 412 nm using a UV-VIS spectrometer. The Michaelis-Menten parameters (kcat, KM and kcat/KM) were determined by non-linear curve fitting (using the well known Michaelis-Menten kinetics equation, V=Vmax[S]/KM+[S], […] where [E] is enzyme concentration, [S] is substrate concentration, and V is initial rate of the reaction) of plots of initial rate versus substrate concentration using the Enzfitter software.
Enzyme activity (kcat), specificity (KM), and productivity (kcat/KM) values were determined for each of the conjugates and native chymotrypsin at 25° C. in 0.1 M phosphate buffer (pH 5-10). Values were determined by monitoring the enzyme catalyzed hydrolysis of Suc-AAPF-pNA. Enzyme concentration for each of the reactions was 39 nM, with substrate concentrations ranging from 0-700 μM. The reaction was monitored for the first 30 seconds after mixing enzyme and substrate.

Substance: α-Chymotrypsin (CT) from bovine pancreas (type II) [Native CT]
- activity maintained [1]: complete activity loss
- GM Ki, fold higher than chymotrypsin-pQA198 ([2]; GM): ~4 fold
- Apparent Vmax ([2]; GM [I]0 0 mM, 25° C.): 1.10 mM/s
- KM/Vmax ([2]; GM [I]0 0 µM, 25° C.): 71.8 s⁻¹
- KM/Vmax ([2]; GM [I]0 0.049 µM, 25° C.): 90.4 s⁻¹
- KM/Vmax ([2]; GM [I]0 0.098 µM, 25° C.): 102.2 s⁻¹
- KM/Vmax ([2]; GM [I]0 0.147 µM, 25° C.): 150.1 s⁻¹
- KM/Vmax ([2]; GM [I]0 0.196 µM, 25° C.): 159.9 s⁻¹
- KM/Vmax ([2]; GM [I]0 0.294 µM, 25° C.): 188.0 s⁻¹
- Apparent Vmax ([2]; GM [I]0 0.049 mM, 25° C.): 1.05 mM/s
- Apparent Vmax ([2]; GM [I]0 0.098 mM, 25° C.): 1.18 mM/s
- Apparent Vmax ([2]; GM [I]0 0.147 mM, 25° C.): 1.21 mM/s
- Apparent Vmax ([2]; GM [I]0 0.196 mM, 25° C.): 1.23 mM/s
- Apparent Vmax ([2]; GM [I]0 0.294 mM, 25° C.): 1.14 mM/s
- Ki ([2]; inhibitor Glycine Max, 25° C.): 172 nM
- activity lost [3]: lost half of its activity
- time after which all activity was lost ([4]; 50° C.): 2 h
- time in which all activity was lost ([4]; 60° C.): 30 min
- Apparent Vmax ([5]; aprotinin [I]0 0 mM): 1.13 mM/s
- KM/Vmax ([5]; aprotinin [I]0 0 mM): 76.3 s⁻¹
- Apparent Vmax ([5]; aprotinin [I]0 0.098 mM): 1.17 mM/s
- KM/Vmax ([5]; aprotinin [I]0 0.098 mM): 149.2 s⁻¹
- Apparent Vmax ([5]; aprotinin [I]0 0.196 mM): 1.14 mM/s
- KM/Vmax ([5]; aprotinin [I]0 0.196 mM): 242.8 s⁻¹
- Apparent Vmax ([5]; aprotinin [I]0 0.294 mM): 1.19 mM/s
- KM/Vmax ([5]; aprotinin [I]0 0.294 mM): 314.3 s⁻¹
- Apparent Vmax ([5]; aprotinin [I]0 0.392 mM): 1.04 mM/s
- KM/Vmax ([5]; aprotinin [I]0 0.392 mM): 431.6 s⁻¹
- Apparent Vmax ([5]; aprotinin [I]0 0.490 mM): 1.13 mM/s
- KM/Vmax ([5]; aprotinin [I]0 0.490 mM): 569.45 s⁻¹
- Ki ([5]; inhibitor aprotinin): 56.3 nM
- Km ([6]; pH 5.0, 25° C.): 184 µM
- kcat ([6]; pH 5.0, 25° C.): 2.85 s⁻¹
- Km ([6]; pH 6.0, 25° C.): 171 µM
- kcat ([6]; pH 6.0, 25° C.): 14.80 s⁻¹
- Km ([6]; pH 7.0, 25° C.): 94.3 µM
- kcat ([6]; pH 7.0, 25° C.): 26.81 s⁻¹
- Km ([6]; pH 8.0, 25° C.): 82.6 µM
- kcat ([6]; pH 8.0, 25° C.): 32.00 s⁻¹
- Km ([6]; pH 9.0, 25° C.): 123 µM
- kcat ([6]; pH 9.0, 25° C.): 33.30 s⁻¹
- Km ([6]; pH 10.0, 25° C.): 336 µM
- kcat ([6]; pH 10.0, 25° C.): 36.62 s⁻¹
